Source: paper PMC9482650, “Quantitative fragmentomics allow affinity mapping of interactomes” (Nature Communications, 2022)

T1: DFNB31_1, Q9P202
T1 sequence (Q9P202 135-233, limits assumed, looked up): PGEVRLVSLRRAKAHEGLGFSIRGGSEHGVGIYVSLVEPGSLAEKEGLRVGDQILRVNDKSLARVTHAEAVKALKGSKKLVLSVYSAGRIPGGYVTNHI

T2: DLG3_1, Q92796
T2 sequence (Q92796 125-227, limits assumed, looked up): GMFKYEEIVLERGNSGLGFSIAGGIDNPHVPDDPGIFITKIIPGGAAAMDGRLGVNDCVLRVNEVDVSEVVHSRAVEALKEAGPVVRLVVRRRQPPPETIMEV

T3: DLG3_2, Q92796
T3 sequence (Q92796 221-321, limits assumed, looked up): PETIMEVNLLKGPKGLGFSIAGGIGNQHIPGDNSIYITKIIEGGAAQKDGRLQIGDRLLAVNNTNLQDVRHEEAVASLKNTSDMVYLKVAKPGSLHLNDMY

T4: LIN7B, Q9HAP6
T4 sequence (Q9HAP6 88-185, limits assumed, looked up): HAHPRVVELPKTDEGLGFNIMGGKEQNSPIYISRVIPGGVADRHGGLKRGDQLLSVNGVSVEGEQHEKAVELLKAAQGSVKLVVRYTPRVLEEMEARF

T5: MPDZ_10, O75970
T5 sequence (O75970 1624-1722, limits assumed, looked up): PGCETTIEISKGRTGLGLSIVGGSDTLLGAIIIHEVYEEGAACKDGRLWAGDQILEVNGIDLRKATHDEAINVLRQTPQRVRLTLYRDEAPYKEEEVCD

T6: MPDZ_12, O75970
T6 sequence (O75970 1857-1958, limits assumed, looked up): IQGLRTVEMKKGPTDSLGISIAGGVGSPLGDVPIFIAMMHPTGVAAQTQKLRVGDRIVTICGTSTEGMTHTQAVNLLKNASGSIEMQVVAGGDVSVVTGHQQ

T7: MPDZ_5, O75970
T7 sequence (O75970 695-796, limits assumed, looked up): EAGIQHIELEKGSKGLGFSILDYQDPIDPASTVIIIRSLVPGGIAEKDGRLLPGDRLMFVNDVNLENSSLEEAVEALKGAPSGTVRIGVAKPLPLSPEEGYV

T8: NHERF3_3, Q5T2W1
T8 sequence (Q5T2W1 238-333, limits assumed, looked up): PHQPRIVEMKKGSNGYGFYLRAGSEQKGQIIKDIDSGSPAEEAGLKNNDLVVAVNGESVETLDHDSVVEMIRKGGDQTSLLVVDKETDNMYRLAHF

T9: PDZRN3_1, Q9UPQ7
T9 sequence (Q9UPQ7 244-349, limits assumed, looked up): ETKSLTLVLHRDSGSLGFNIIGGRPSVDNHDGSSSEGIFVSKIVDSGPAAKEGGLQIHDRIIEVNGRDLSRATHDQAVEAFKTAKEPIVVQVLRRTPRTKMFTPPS

T10: RAPGEF6, Q8TEU7
T10 sequence (Q8TEU7 525-625, limits assumed, looked up): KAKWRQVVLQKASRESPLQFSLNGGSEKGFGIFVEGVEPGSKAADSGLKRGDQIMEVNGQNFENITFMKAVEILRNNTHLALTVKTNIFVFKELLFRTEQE

T11: SIPA1L2, Q9P2F8
T11 sequence (Q9P2F8 945-1036, limits assumed, looked up): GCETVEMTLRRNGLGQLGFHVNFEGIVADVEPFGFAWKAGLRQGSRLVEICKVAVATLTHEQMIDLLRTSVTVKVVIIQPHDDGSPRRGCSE

T12: SNTG2, Q9NY99
T12 sequence (Q9NY99 68-166, limits assumed, looked up): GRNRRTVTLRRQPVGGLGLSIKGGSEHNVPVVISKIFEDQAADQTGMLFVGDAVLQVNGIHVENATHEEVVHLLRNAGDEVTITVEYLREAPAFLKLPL


These binders were tested against AHNAK1, Q09666 (assay: holdup assay). Details: plain residues with an end cap or a label only (N-terminal biotin on a linker: ado-ado).
Design: key: below the threshold = too weak to quantify, mostly under pKd 3.1 to 4

Chain of AHNAK1, Q09666 (Q09666 4-100): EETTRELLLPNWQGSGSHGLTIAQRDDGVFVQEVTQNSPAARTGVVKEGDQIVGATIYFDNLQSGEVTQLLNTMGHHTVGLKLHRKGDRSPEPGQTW

Row | Binder | pKd
1 | DRIQSCLSDA [SBF1, O95248] | below the threshold
2 | SFISKKEWYV [NECTIN1, Q15223] | below the threshold

The binders below were run against T1, DFNB31_1, Q9P202 (assay: holdup assay). Details: plain residues with an end cap or a label only (N-terminal biotin on a linker: ado-ado).
Design: key: below the threshold = too weak to quantify, mostly under pKd 3.1 to 4

Row | Binder | pKd
3 | DRIQSCLSDA [SBF1, O95248] | below the threshold
4 | SFISKKEWYV [NECTIN1, Q15223] | below the threshold

What follows are binders tested against DLG1_3, Q12959 (assay: holdup assay). Details: plain residues with an end cap or a label only (N-terminal biotin on a linker: ado-ado).
Design: key: below the threshold = too weak to quantify, mostly under pKd 3.1 to 4

Chain of DLG1_3, Q12959 (Q12959 457-571): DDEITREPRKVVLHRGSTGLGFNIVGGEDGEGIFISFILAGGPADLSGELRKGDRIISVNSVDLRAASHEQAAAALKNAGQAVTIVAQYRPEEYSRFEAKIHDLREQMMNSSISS

Row | Binder | pKd
5 | DRIQSCLSDA [SBF1, O95248] | below the threshold
6 | SFISKKEWYV [NECTIN1, Q15223] | below the threshold

What follows are binders tested against T2, DLG3_1, Q92796 (assay: holdup assay). Details: plain residues with an end cap or a label only (N-terminal biotin on a linker: ado-ado).
Design: key: below the threshold = too weak to quantify, mostly under pKd 3.1 to 4

Row | Binder | pKd
7 | DRIQSCLSDA [SBF1, O95248] | below the threshold
8 | SFISKKEWYV [NECTIN1, Q15223] | below the threshold

What follows are binders tested against T3, DLG3_2, Q92796 (assay: holdup assay). Details: plain residues with an end cap or a label only (N-terminal biotin on a linker: ado-ado).
Design: key: below the threshold = too weak to quantify, mostly under pKd 3.1 to 4

Row | Binder | pKd
9 | DRIQSCLSDA [SBF1, O95248] | 4.19
10 | SFISKKEWYV [NECTIN1, Q15223] | 4.11

What follows are binders tested against FRMPD2_3, Q68DX3 (assay: holdup assay). Details: plain residues with an end cap or a label only (N-terminal biotin on a linker: ado-ado).
Design: key: below the threshold = too weak to quantify, mostly under pKd 3.1 to 4

Chain of FRMPD2_3, Q68DX3 (Q68DX3 1073-1166): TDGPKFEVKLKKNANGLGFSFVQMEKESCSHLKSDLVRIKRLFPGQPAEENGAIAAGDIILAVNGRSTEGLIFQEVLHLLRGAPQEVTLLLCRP

Row | Binder | pKd
11 | DRIQSCLSDA [SBF1, O95248] | below the threshold
12 | SFISKKEWYV [NECTIN1, Q15223] | 4.31

What follows are binders tested against GRID2IP_1, A4D2P6 (assay: holdup assay). Details: plain residues with an end cap or a label only (N-terminal biotin on a linker: ado-ado).
Design: key: below the threshold = too weak to quantify, mostly under pKd 3.1 to 4

Chain of GRID2IP_1, A4D2P6 (A4D2P6 1-87): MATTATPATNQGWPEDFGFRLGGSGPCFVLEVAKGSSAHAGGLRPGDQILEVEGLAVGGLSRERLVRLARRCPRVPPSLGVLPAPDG

Row | Binder | pKd
13 | DRIQSCLSDA [SBF1, O95248] | below the threshold
14 | SFISKKEWYV [NECTIN1, Q15223] | below the threshold

The binders below were run against Inadl_3, Q8NI35 (assay: holdup assay). Details: plain residues with an end cap or a label only (N-terminal biotin on a linker: ado-ado).
Design: key: below the threshold = too weak to quantify, mostly under pKd 3.1 to 4

Chain of Inadl_3, Q8NI35 (Q8NI35 359-469): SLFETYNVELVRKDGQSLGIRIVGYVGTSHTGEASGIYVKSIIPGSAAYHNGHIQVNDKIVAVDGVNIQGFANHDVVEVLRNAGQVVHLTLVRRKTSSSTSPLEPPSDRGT

Row | Binder | pKd
15 | DRIQSCLSDA [SBF1, O95248] | below the threshold
16 | SFISKKEWYV [NECTIN1, Q15223] | 4.83

The binders below were run against Inadl_5, Q8NI35 (assay: holdup assay). Details: plain residues with an end cap or a label only (N-terminal biotin on a linker: ado-ado).
Design: key: below the threshold = too weak to quantify, mostly under pKd 3.1 to 4

Chain of Inadl_5, Q8NI35 (Q8NI35 673-780): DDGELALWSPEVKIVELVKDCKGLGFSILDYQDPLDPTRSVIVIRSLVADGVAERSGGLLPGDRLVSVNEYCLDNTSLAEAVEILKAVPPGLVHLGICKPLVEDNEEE

Row | Binder | pKd
17 | DRIQSCLSDA [SBF1, O95248] | below the threshold
18 | SFISKKEWYV [NECTIN1, Q15223] | 4.82

These binders were tested against LDB3, O75112 (assay: holdup assay). Details: plain residues with an end cap or a label only (N-terminal biotin on a linker: ado-ado).
Design: key: below the threshold = too weak to quantify, mostly under pKd 3.1 to 4

Chain of LDB3, O75112 (O75112 1-94): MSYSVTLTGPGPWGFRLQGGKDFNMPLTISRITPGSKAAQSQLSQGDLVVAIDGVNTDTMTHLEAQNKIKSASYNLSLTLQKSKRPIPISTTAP

Row | Binder | pKd
19 | DRIQSCLSDA [SBF1, O95248] | below the threshold
20 | SFISKKEWYV [NECTIN1, Q15223] | below the threshold

The binders below were run against T4, LIN7B, Q9HAP6 (assay: holdup assay). Details: plain residues with an end cap or a label only (N-terminal biotin on a linker: ado-ado).
Design: key: below the threshold = too weak to quantify, mostly under pKd 3.1 to 4

Row | Binder | pKd
21 | DRIQSCLSDA [SBF1, O95248] | 3.72
22 | SFISKKEWYV [NECTIN1, Q15223] | 3.63

The binders below were run against T5, MPDZ_10, O75970 (assay: holdup assay). Details: plain residues with an end cap or a label only (N-terminal biotin on a linker: ado-ado).
Design: key: below the threshold = too weak to quantify, mostly under pKd 3.1 to 4

Row | Binder | pKd
23 | DRIQSCLSDA [SBF1, O95248] | below the threshold
24 | SFISKKEWYV [NECTIN1, Q15223] | below the threshold

The binders below were run against T6, MPDZ_12, O75970 (assay: holdup assay). Details: plain residues with an end cap or a label only (N-terminal biotin on a linker: ado-ado).
Design: key: below the threshold = too weak to quantify, mostly under pKd 3.1 to 4

Row | Binder | pKd
25 | DRIQSCLSDA [SBF1, O95248] | 3.49
26 | SFISKKEWYV [NECTIN1, Q15223] | below the threshold

The binders below were run against T7, MPDZ_5, O75970 (assay: holdup assay). Details: plain residues with an end cap or a label only (N-terminal biotin on a linker: ado-ado).
Design: key: below the threshold = too weak to quantify, mostly under pKd 3.1 to 4

Row | Binder | pKd
27 | DRIQSCLSDA [SBF1, O95248] | below the threshold
28 | SFISKKEWYV [NECTIN1, Q15223] | 4.61

What follows are binders tested against T8, NHERF3_3, Q5T2W1 (assay: holdup assay). Details: plain residues with an end cap or a label only (N-terminal biotin on a linker: ado-ado).
Design: key: below the threshold = too weak to quantify, mostly under pKd 3.1 to 4

Row | Binder | pKd
29 | DRIQSCLSDA [SBF1, O95248] | below the threshold
30 | SFISKKEWYV [NECTIN1, Q15223] | below the threshold

What follows are binders tested against NHERF4_2, Q86UT5 (assay: holdup assay). Details: plain residues with an end cap or a label only (N-terminal biotin on a linker: ado-ado).
Design: key: below the threshold = too weak to quantify, mostly under pKd 3.1 to 4

Chain of NHERF4_2, Q86UT5 (Q86UT5 220-308): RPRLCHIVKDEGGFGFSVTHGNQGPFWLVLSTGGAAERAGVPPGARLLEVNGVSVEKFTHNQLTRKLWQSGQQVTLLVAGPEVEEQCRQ

Row | Binder | pKd
31 | DRIQSCLSDA [SBF1, O95248] | below the threshold
32 | SFISKKEWYV [NECTIN1, Q15223] | below the threshold

Each binder was assayed against NHERF4_4, Q86UT5 (assay: holdup assay). Details: plain residues with an end cap or a label only (N-terminal biotin on a linker: ado-ado).
Design: key: below the threshold = too weak to quantify, mostly under pKd 3.1 to 4

Chain of NHERF4_4, Q86UT5 (Q86UT5 464-550): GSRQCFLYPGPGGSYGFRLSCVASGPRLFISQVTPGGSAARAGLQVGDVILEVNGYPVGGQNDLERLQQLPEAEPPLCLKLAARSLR

Row | Binder | pKd
33 | DRIQSCLSDA [SBF1, O95248] | below the threshold
34 | SFISKKEWYV [NECTIN1, Q15223] | below the threshold

Each binder was assayed against T9, PDZRN3_1, Q9UPQ7 (assay: holdup assay). Details: plain residues with an end cap or a label only (N-terminal biotin on a linker: ado-ado).
Design: key: below the threshold = too weak to quantify, mostly under pKd 3.1 to 4

Row | Binder | pKd
35 | DRIQSCLSDA [SBF1, O95248] | below the threshold
36 | SFISKKEWYV [NECTIN1, Q15223] | below the threshold

These binders were tested against T10, RAPGEF6, Q8TEU7 (assay: holdup assay). Details: plain residues with an end cap or a label only (N-terminal biotin on a linker: ado-ado).
Design: key: below the threshold = too weak to quantify, mostly under pKd 3.1 to 4

Row | Binder | pKd
37 | DRIQSCLSDA [SBF1, O95248] | below the threshold
38 | SFISKKEWYV [NECTIN1, Q15223] | below the threshold

These binders were tested against SCRIB_1, Q14160 (assay: holdup assay). Details: plain residues with an end cap or a label only (N-terminal biotin on a linker: ado-ado).
Design: key: below the threshold = too weak to quantify, mostly under pKd 3.1 to 4

Chain of SCRIB_1, Q14160 (Q14160 718-814): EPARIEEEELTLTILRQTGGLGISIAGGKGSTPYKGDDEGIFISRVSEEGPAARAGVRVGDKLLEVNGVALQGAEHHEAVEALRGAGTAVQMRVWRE

Row | Binder | pKd
39 | DRIQSCLSDA [SBF1, O95248] | below the threshold
40 | SFISKKEWYV [NECTIN1, Q15223] | below the threshold

The binders below were run against T11, SIPA1L2, Q9P2F8 (assay: holdup assay). Details: plain residues with an end cap or a label only (N-terminal biotin on a linker: ado-ado).
Design: key: below the threshold = too weak to quantify, mostly under pKd 3.1 to 4

Row | Binder | pKd
41 | DRIQSCLSDA [SBF1, O95248] | below the threshold
42 | SFISKKEWYV [NECTIN1, Q15223] | below the threshold

Each binder was assayed against T12, SNTG2, Q9NY99 (assay: holdup assay). Details: plain residues with an end cap or a label only (N-terminal biotin on a linker: ado-ado).
Design: key: below the threshold = too weak to quantify, mostly under pKd 3.1 to 4

Row | Binder | pKd
43 | DRIQSCLSDA [SBF1, O95248] | below the threshold
44 | SFISKKEWYV [NECTIN1, Q15223] | 3.49

What follows are binders tested against SNX27, Q96L92 (assay: holdup assay). Details: plain residues with an end cap or a label only (N-terminal biotin on a linker: ado-ado).
Design: key: below the threshold = too weak to quantify, mostly under pKd 3.1 to 4

Row | Binder | pKd
45 | DRIQSCLSDA [SBF1, O95248] | below the threshold
46 | SFISKKEWYV [NECTIN1, Q15223] | below the threshold

These binders were tested against TJP1_3, Q07157 (assay: holdup assay). Details: plain residues with an end cap or a label only (N-terminal biotin on a linker: ado-ado).
Design: key: below the threshold = too weak to quantify, mostly under pKd 3.1 to 4

Chain of TJP1_3, Q07157 (Q07157 416-512): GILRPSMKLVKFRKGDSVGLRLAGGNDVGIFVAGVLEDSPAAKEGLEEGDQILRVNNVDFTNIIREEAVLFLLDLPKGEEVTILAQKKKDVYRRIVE

Row | Binder | pKd
47 | DRIQSCLSDA [SBF1, O95248] | below the threshold
48 | SFISKKEWYV [NECTIN1, Q15223] | below the threshold
